Assay results reported in paper PMC9352680, “A comprehensive thermodynamic model for RNA binding by the Saccharomyces cerevisiae Pumilio protein PUF4”.

Molecular target: T1, PUF4 RNA-binding domain (Saccharomyces cerevisiae, UniProt P25339 537-888)
T1 sequence: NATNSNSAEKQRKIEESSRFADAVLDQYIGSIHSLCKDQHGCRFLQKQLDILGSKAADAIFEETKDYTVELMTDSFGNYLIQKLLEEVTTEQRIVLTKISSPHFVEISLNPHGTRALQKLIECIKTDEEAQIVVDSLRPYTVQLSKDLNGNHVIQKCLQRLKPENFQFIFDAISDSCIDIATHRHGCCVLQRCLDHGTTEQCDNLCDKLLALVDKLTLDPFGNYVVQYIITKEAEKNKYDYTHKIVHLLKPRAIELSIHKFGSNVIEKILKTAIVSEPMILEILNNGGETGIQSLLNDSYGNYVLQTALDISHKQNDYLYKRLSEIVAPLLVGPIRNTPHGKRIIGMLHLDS
Assay: Mg; RNA-MaP; 20 mM Na-HEPES pH 7.4, 30 mM KOAc, 0.75 mM MgCl2, 0.1% Tween-20, 5% glycerol, 0.1 mg/mL BSA, 2 mM DTT; 25 C; 0.0125-409.6 nM protein
Settings: tags: N-His6-TEV cleaved; C-SNAP kept, Cy3B-labelled; label: tethered on chip by stalled RNA polymerase

Binder	Kd [nM]
UCUCUUUGUAGCUUUUCUCUU (ssRNA) [Ic_S1_P4E.1_K4.1_C4.1_H4.1_A4.1_[T5G]_[A6C]_F4.1_[A9T]_T4.1]	361
UCUCUUUGUAGUGCCUCUCUU (ssRNA) [Ic_S1_P4E.1_K4.1_C4.1_H4.1_A4.1_[T5G]_[A6T]_[T7G]_F4.1_[T8C]_[A9C]_T4.1]	> 2300
UCUCUUUGUAGUGCUUCUCUU (ssRNA) [Ic_S1_P4E.1_K4.1_C4.1_H4.1_A4.1_[T5G]_[A6T]_[T7G]_F4.1_[T8C]_[A9T]_T4.1]	> 2300
UCUCUUUGUAUACUUCUCUU (ssRNA) [Ic_S1_P3E.1_K3.1_C3.1_H3.1_A3.1_F3.1_[T7C]_[A8T]_T3.1]	5.59
UCUCUUUGUAGUGUGUCUCUU (ssRNA) [Ic_S1_P4E.1_K4.1_C4.1_H4.1_A4.1_[T5G]_[A6T]_[T7G]_F4.1_[A9G]_T4.1]	575
UCUCUUUGUAGUGUCUCUCUU (ssRNA) [Ic_S1_P4E.1_K4.1_C4.1_H4.1_A4.1_[T5G]_[A6T]_[T7G]_F4.1_[A9C]_T4.1]	1370
UCUCUUUGUAGUGUUUCUCUU (ssRNA) [Ic_S1_P4E.1_K4.1_C4.1_H4.1_A4.1_[T5G]_[A6T]_[T7G]_F4.1_[A9T]_T4.1]	736
UCUCUUUGUAGUGUAUCUCUU (ssRNA) [Ic_S1_P4E.1_K4.1_C4.1_H4.1_A4.1_[T5G]_[A6T]_[T7G]_F4.1_T4.1]	52.3
UCUCUUUGUAGUCGGUCUCUU (ssRNA) [Ic_S1_P4E.1_K4.1_C4.1_H4.1_A4.1_[T5G]_[A6T]_[T7C]_F4.1_[T8G]_[A9G]_T4.1]	> 2300
UCUCUUUGUAGUCGCUCUCUU (ssRNA) [Ic_S1_P4E.1_K4.1_C4.1_H4.1_A4.1_[T5G]_[A6T]_[T7C]_F4.1_[T8G]_[A9C]_T4.1]	> 2300
UCUCUUUGUAGUCGUUCUCUU (ssRNA) [Ic_S1_P4E.1_K4.1_C4.1_H4.1_A4.1_[T5G]_[A6T]_[T7C]_F4.1_[T8G]_[A9T]_T4.1]	1600
UCUCUUUGUAGUCCAUCUCUU (ssRNA) [Ic_S1_P4E.1_K4.1_C4.1_H4.1_A4.1_[T5G]_[A6T]_[T7C]_F4.1_[T8C]_T4.1]	1510
UCUCUUUGUAGUCACUCUCUU (ssRNA) [Ic_S1_P4E.1_K4.1_C4.1_H4.1_A4.1_[T5G]_[A6T]_[T7C]_F4.1_[T8A]_[A9C]_T4.1]	1760
UCUCUUUGUAGUCAUUCUCUU (ssRNA) [Ic_S1_P4E.1_K4.1_C4.1_H4.1_A4.1_[T5G]_[A6T]_[T7C]_F4.1_[T8A]_[A9T]_T4.1]	971
UCUCUUUGUAUAAGUCUCUU (ssRNA) [Ib_S1_P3E.1_K3.1_C3.1_H3.1_A3.1_F3.1_[T7A]_[A8G]_T3.1]	502
UCUCUUUGUAGUCUGUCUCUU (ssRNA) [Ic_S1_P4E.1_K4.1_C4.1_H4.1_A4.1_[T5G]_[A6T]_[T7C]_F4.1_[A9G]_T4.1]	406

Binder	Kd [nM]
UCUCUUUGUAGUCUCUCUCUU (ssRNA) [Ic_S1_P4E.1_K4.1_C4.1_H4.1_A4.1_[T5G]_[A6T]_[T7C]_F4.1_[A9C]_T4.1]	658
UCUCUUUGUAGUCUUUCUCUU (ssRNA) [Ic_S1_P4E.1_K4.1_C4.1_H4.1_A4.1_[T5G]_[A6T]_[T7C]_F4.1_[A9T]_T4.1]	389
UCUCUUUGUAGUCUAUCUCUU (ssRNA) [Ic_S1_P4E.1_K4.1_C4.1_H4.1_A4.1_[T5G]_[A6T]_[T7C]_F4.1_T4.1]	21.1
UCUCUUUGUAGUACUUCUCUU (ssRNA) [Ic_S1_P4E.1_K4.1_C4.1_H4.1_A4.1_[T5G]_[A6T]_[T7A]_F4.1_[T8C]_[A9T]_T4.1]	760
UCUCUUUGUAGUACAUCUCUU (ssRNA) [Ic_S1_P4E.1_K4.1_C4.1_H4.1_A4.1_[T5G]_[A6T]_[T7A]_F4.1_[T8C]_T4.1]	1720
UCUCUUUGUAGUAACUCUCUU (ssRNA) [Ic_S1_P4E.1_K4.1_C4.1_H4.1_A4.1_[T5G]_[A6T]_[T7A]_F4.1_[T8A]_[A9C]_T4.1]	> 2300
UCUCUUUGUAGUAAUUCUCUU (ssRNA) [Ic_S1_P4E.1_K4.1_C4.1_H4.1_A4.1_[T5G]_[A6T]_[T7A]_F4.1_[T8A]_[A9T]_T4.1]	1500
UCUCUUUGUAGUAUGUCUCUU (ssRNA) [Ic_S1_P4E.1_K4.1_C4.1_H4.1_A4.1_[T5G]_[A6T]_[T7A]_F4.1_[A9G]_T4.1]	278
UCUCUUUGUAGUAUCUCUCUU (ssRNA) [Ic_S1_P4E.1_K4.1_C4.1_H4.1_A4.1_[T5G]_[A6T]_[T7A]_F4.1_[A9C]_T4.1]	590
UCUCUUUGUAUAACUCUCUU (ssRNA) [Ib_S1_P3E.1_K3.1_C3.1_H3.1_A3.1_F3.1_[T7A]_[A8C]_T3.1]	47
UCUCUUUGUAGUAUUUCUCUU (ssRNA) [Ic_S1_P4E.1_K4.1_C4.1_H4.1_A4.1_[T5G]_[A6T]_[T7A]_F4.1_[A9T]_T4.1]	297
UCUCUUUGUAGUAUAUCUCUU (ssRNA) [Ic_S1_P4E.1_K4.1_C4.1_H4.1_A4.1_[T5G]_[A6T]_[T7A]_F4.1_T4.1]	11.2
UCUCUUUGUAGUUGUUCUCUU (ssRNA) [Ic_S1_P4E.1_K4.1_C4.1_H4.1_A4.1_[T5G]_[A6T]_F4.1_[T8G]_[A9T]_T4.1]	802
UCUCUUUGUAGUUCGUCUCUU (ssRNA) [Ic_S1_P4E.1_K4.1_C4.1_H4.1_A4.1_[T5G]_[A6T]_F4.1_[T8C]_[A9G]_T4.1]	> 2300
UCUCUUUGUAGUUCCUCUCUU (ssRNA) [Ic_S1_P4E.1_K4.1_C4.1_H4.1_A4.1_[T5G]_[A6T]_F4.1_[T8C]_[A9C]_T4.1]	1260
UCUCUUUGUAGUUCUUCUCUU (ssRNA) [Ic_S1_P4E.1_K4.1_C4.1_H4.1_A4.1_[T5G]_[A6T]_F4.1_[T8C]_[A9T]_T4.1]	798
